Experimental data taken from patent publication US20050153872A1, “Methods and compositions for the treatment of infection” (priority 2004, published 2005).

Tests used:
ATCC 700802 VRE cells [1] = test: Electron micrographs of bactericidal effects of Ph-EF; assay type: cell-based, Enterococcus; conditions: Ph-EF 10 ug/ml 0.5 and 2 hr; Ph-SA 10 ug/ml 2 hr; vancomycin 20 ug/ml 2 hr
Protocol: Electron Microraphs of Bactericidal Effects of Ph-EF Against ATCC 700802 VRE Cells (1% Phosphotungstic Acid, 15.000×).
Bactericidal effects of ph-EF were tested and monitored by electron microscopy. FIG. 16 depicts electron micrographs of (a) untreated cells; (b) and (c) cells treated with Ph-EF (10 ug/ml) for 0.5 hr; (d) untreated cells for 2 hr; (e) cells treated by Ph-SA (10 ug/ml) for 2 hr; (f) cells treated with vancomycin (20 ug/ml) for 2 hr; (g) and (h) cells treated with Ph-EF (10 ug/ml) for 2 hrs.

[2] = tested on: Vancomycin-resistant Enterococcus ATCC 700802
ATCC 700802 VRE cells [3] = test: Ph-EF protection of ATCC 700802 infected mice; assay type: in vivo; conditions: for Death distribution in hours 24 h / Death distribution in hours 48 h / Death distribution in hours 72 h / Death distribution in hours 96 h / Death distribution in hours 120 h / Death distribution in hours 144 h / Death distribution in hours 168 h / Number of Death: 5 animals
Protocol: To assess in vivo effects of Ph-EF, mice were injected with a fatal dosage of ATCC 700802 VRE cells intraperitoneally. […] Mice were inspected every 24 hours for 7-14 days. Dead mice would be counted as positive results.

[4] = tested on: vancomycin-sensitive Enterococcus ATCC29212; conditions: 3 ug/ml; ATCC 29212 cells

B1: Ph-EF: Colicin Ia linked to the N-terminus of the E. facaelis pheromone cCF10 (protein)
chain: SDPVARGITNPGAESLGYDSDGHEIMAVASPIYVASNPPRVASPVFHGTPPAWSSFGNKTIWGGNEWVASPDSPTRSDIEKRDKEITAYKNTLSAQQKENENKRTEAGKRLSAAIAAREKDENTLKTLRAGNADAADITRQEFRLLQAELREYGFRTEIAGYDALRLHTESRMLFADADSLRISPREARSLIEQAEKRQKDAQNADKKAADMLAEYERRKGILDTRLSELEKNGGAALAVLDAQQARLLGQQTRNDRAISEARNKLSSVTESLNTARNALTRAEQQLTQQKNTPDGKTIVSPEKFPGRSSTNHSIVVSGDPRFAGTIKITTSAVIDNRANLNYLLSHSGLDYKRNILNDRNPVVTEDVEGDKKIYNAEVALAEWDKLRQRLLDARNKITSAESAVASNSARNNLSARTNEQKHANDALNALLKEKENIRNQLSGINQKIAEEKRKQDELKATKDAINFTTEFLKSVSEKYGAKAEQLAREMAGQAKGKKIRNVEEALKTYEKYRADINKKINAKDRAAIAAALESVKLSDISSNLNRFSRGLGYAGKFTSLADWITEFGKAVARGTENWRPLFVKTETIIAGNAATALVALALVFSILTGSALGIIGYGLLMAVTGALIDESLVEKANKFWGILVTLVFV
modifications: Colicin Ia linked to E. facaelis pheromone cCF10
- morphological alteration in VRE cells (electron micrographs) (ATCC 700802 VRE cells [1]): substantial morphological alteration
- inhibition of VRE cell growth ([2]; 10 ug/ml, ATCC 700802): effectively inhibited VRE cell growth
- bactericidal effect relative to vancomycin on a molar basis ([2]; Ph-EF 70,000 daltons vs vancomycin 1456 daltons): almost one hundred times greater
- Death distribution in hours 24 h (ATCC 700802 VRE cells [3]; 5 mg/kg intravenously): 0
- Death distribution in hours 48 h (ATCC 700802 VRE cells [3]; 5 mg/kg intravenously): 1
- Death distribution in hours 72 h (ATCC 700802 VRE cells [3]; 5 mg/kg intravenously): 0
- Death distribution in hours 96 h (ATCC 700802 VRE cells [3]; 5 mg/kg intravenously): 0
- Death distribution in hours 120 h (ATCC 700802 VRE cells [3]; 5 mg/kg intravenously): 0
- Death distribution in hours 144 h (ATCC 700802 VRE cells [3]; 5 mg/kg intravenously): 0
- Death distribution in hours 168 h (ATCC 700802 VRE cells [3]; 5 mg/kg intravenously): 0
- Number of Death (ATCC 700802 VRE cells [3]; 5 mg/kg intravenously): 1
- Death distribution in hours 24 h (ATCC 700802 VRE cells [3]; 10 mg/kg intravenously): 0
- Death distribution in hours 48 h (ATCC 700802 VRE cells [3]; 10 mg/kg intravenously): 0
- Death distribution in hours 72 h (ATCC 700802 VRE cells [3]; 10 mg/kg intravenously): 0
- Death distribution in hours 96 h (ATCC 700802 VRE cells [3]; 10 mg/kg intravenously): 0
- Death distribution in hours 120 h (ATCC 700802 VRE cells [3]; 10 mg/kg intravenously): 0
- Death distribution in hours 144 h (ATCC 700802 VRE cells [3]; 10 mg/kg intravenously): 0
- Death distribution in hours 168 h (ATCC 700802 VRE cells [3]; 10 mg/kg intravenously): 0
- Number of Death (ATCC 700802 VRE cells [3]; 10 mg/kg intravenously): 0
- protection against infection in mice (ATCC 700802 VRE cells [3]; ATCC 700802 VRE i.p., agent i.v.): effectively prevent Enterococcus infection in mice
- inhibition of cell growth [4]: inhibited cell growth
